Laboratory results as given in a protein production outcome set (Wang et al. 2014).

Test: label from the status in PepcDB records

Sequence	protein production
MISPDAKIKIQNFGRFLSNMVMPNIGAFIAWGFITALFIPTGWLPNETLASMVGPMITYLLPLLIGYTGGKLVGGDRGAVVGAITTMGVIVGTDIPMFMGAMMVGPMGGWAIKKFDNYIDGKVKSGFEMLVNNFSAGIIGMLCAILAFFLIGPFVKVLSGALAAGVNFLVSAHLLPLTSIFVEPAKILFLNNAINHGIFSPLGIQQASETGQSIFFLIEANPGPGLGILLAYMVFGKGTARQTAGGASIIHFFGGIHEIYFPYILMNPRLILAAIAGGMTGVFVLTMFNAGIVSPASPGSIFAILLMTQKGSIVGVLASIAAATGVSFAVASLLMKTQTSTEEDGDEAALEKATSQMKDMKSSSKNGAVVNNESKGDVDLATVQSIIVACDAGMGSSAMGASMLRKKVQDAGLNVHVTNLAINSLPESADIVITHKDLTGRARKHAPNAHHISLTNFLDSEMYNQLVTKLLAAQKQSAANDDQMVKVSVLAANDDSFEPQQPSVFQIQRENIHLGLKAANKEEAIRFAGNKLVELGYAEPEYVDAMFEREALVPTYLGESIAVPHGTVEAKDRVKKTGIVICQYPSGIQFTEDDDDVAKLVIGIAAKNDEHIQVITTITNALDEPEAIEKLTSTNDVEEILNILGGQQAA	failed
MADQGLEESNPMDLSKHPSGIVPTPHSQVIYKMPPRIAAIRLVSSHREVYEPCDDSFALVDALLADRTNLIEHNPKICMEIGCGSGYVITSLILLLQNEVPGVHYLAIDTNPIATRVTKETLEAHGVNADVICADLATGLEKRLAGSVDVIVVNPPYVPTPEYEVGMEGIASAWAGGENGRTVIDKILPVVDLLLSEKGWFYLVTLTSNFPAEICLMMRKKGYASRIVVQRSTEEENLVILKFWRDKDEESQDKETSSSSFVSQFSKSLSSLMEKQWR	failed
MNNAMQLLQPYPFKKLRALLGSVTPNPEKRPVALSIGEPKHRSPDFVAKALADNLDQMAVYPTTLGIPALREAIAGWCNRRFGVPQGWIDPARNVLPVNGTREALFAFTQTVVNRSDDGLVVSPNPFYQIYEGAAFLAGAQPHYLPCLSDNGFNPDFDAVDADIWKRCQILFLCSPGNPTGALIPVETLKKLIALADEHDFVIAADECYSELYFDEQTPPPGLLSACVELGRQDFKRCVVFHSLSKRSNLPGLRSGFVAGDAEILKAFLLYRTYHGCAMPVQTQLASIAAWNDEEHVRANRDLYREKFDAVLDILAPVLDVQRPDGGFYLWPNVGTDDAAFCRDLFVDQHVTAVPGSYLSREVDGVNPGAGRVRLALVAPLAECIEAAERIRAFVLK	not failed
MARSQQFPSSTAVSVSPPAASSIAKPPQPVLDGLWAFAPNRDTLGGTAYFLKLPQGNWLIDAPAWHGETQAFVEEQGGLQGVFLTHRGAFGKAIAIQQHFDCDLVVQEQEAYLLPGANVTTFEQEQAIAPALTAIWTCGHSPGSACLYWEGHGGVLFTGRHLLPTRAGGVAPLRTAKTFHWPRQIRNTQMLCDRFSSETLAWICPGASSGFLRGRKAIASAYMQLQQLDWSALSEAQPLL	failed
MAARRFTGDELAALLPHAGDAFFLRDAEVDGWRASGGASWRSDHPHLRGHFPGEPIVPGVYLLEAAAQLAGVAIRCGAEDWTPETLGVLAGVRKSYFHRFVRPGERVDYALDVKPAPGSAMYAVSGLGKVDGDKVLTVELTIAGVRRLEHHHHHH	failed
MDFKIEKYLLKKAEELAFITIKHGGEFKLKSYEVPKGGLDVPIKNEVLVKGIKEKTAQDKLNSMSIADAMIYIIGIDSKFKNNAEYEKFLNALSKDIDLDLKSYMGYMSRKYFEIGEHTDSLIYIKAFITMYPDDLDAMYNYAIVCQEIAKQYQKDMDDKAMNAFLLEAMAKLEKVIDVDENFALGYYHLGYHYYNQGQYLKTKLTWEEALRLGLDADLVAEVQENLGKMDFKVQYEEGYTLVFQGKFKEGLEKLLPLEEEHMDWWNLLFMIALGYKGMGEIEQAKMYLEKILIIKPNQVDTIVELGLCEAYKNNLDKAIEYFEQAAKIKEDPEILCNLGMAYLNNGDIDDATYYIERAYELNPQDEITIVCLRELGINK	failed
MAGGPPNTKAEMEMSLAEELNHGRQGENQEHLVIAEMMELGSRSRGASQKKQKLEQKAAGSASAKRVWNMTATRPKKMGSQLPKPRMLRESGHGDAHLQEYAGNFQGIRFHYDRNPGTDAVAQTSLEEFNVLEMEVMRRQLYAVNRRLRALEEQGATWRHRETLIIAVLVSASIANLWLWMNQ	failed
MGKEERAKWVNDEYAKAYEKMKSYGEQVKKADKPRVLYLKRSDLTLQGNDNFIKESMELAGADNIAAEAKSITMEEILKLDPEIILLSDFDKFLPQDLYENRIEGQDWSSVSAVVNKRVYKTPVGIYRWDAPGVETPLMMFWLGKMLQPEILEHHHHHH	failed
MSRKSAPSSTAAPAPKLAADRIRATARELFYREGIRAVGVDAIVSAAGVTKPSLYRSFSSKDELAASYLRDYETEFWSRFDAGAQRHPDDPRAQLRLYLESLAERAANAGPYRGCGLSNAAVEYPDPDHPARLVAEAHKRELRRRLIDMARRMGAREPEVLGDGLMLLIEGAFISGQLFHGDGPARHVARLADRLIEASL	failed
MQNNSYGYAVSVRVGGKEHRHWERYDIDSDFLIPADSFDFVIGRLGPEAAIPDLSGESCEVVIDGQIVMTGIIGSQRHGKSKGSRELSLSGRDLAGFLVDCSAPQLNVKGMTVLDAAKKLAAPWPQIKAVVLKAENNPALGKIDIEPGETVWQALTHIANSVGLHPWLEPDGTLVVGGADYSSPPVATLCWSRTDSRCNIERMDIEWDTDNRFSEVTFLAQSHGRSGDSAKHDLKWVYKDPTMTLHRPKTVVVSDADNLAALQKQAKKQLADWRLEGFTLTITVGGHKTRDGVLWQPGLRVHVIDDEHGIDAVFFLMGRRFMLSRMDGTQTELRLKEDGIWTPDAYPK	not failed
MAQEVSPESYKDLVLFLATAGIVAPIFKRLKINPILGYLLAGVILGPFGLGRFIPYAPWLDYFTVDNPDEIAQLAEFGVVFLLFMIGLELSWERLRLMRRWVFGLGAVQVIGCSLALGAGGMLLGLEPVVALTIGAALTLSSTAIAVPVLAERRRLHSEAGRATFSVLLFQDLAVAPILITLAILGRGNGSFQLQDLLALAPAALGLAVIVLVGRLALRPMLKSVAKAKSEEMFMAACLLVIIGAGMVAALSGLSMALGAFVAGVLLAETEYRHEVEVKIEPFKGLLLSLFFVSLGIRLDLSLLAAQPAAILGTALGLLVLKTAVVFGSGLLMGLNRRAAIEAALILAAGGEFAFVLLDNAMSAQVVPPAIGQAVLVSATLTMFLIPGLAALGGYLGRKNAPLPVSEAPPSTANEPDRLGPEPAGQVLVIGYGRVGRLVGDMLGRHDLPWIAVEREARLVEQGRRDGARIYYGDASRLELLERCGLATARAVVVTMDAFEVAEAVVVAARGARPDVPIVVRARDARHAARLYELGATDAVPETIEASLQLSEAVLVDIGVPMGLVIASIHERRDEYRKKLNRPDALGGRRRRLRDATLR	failed
MDEGRRINIPKIGAVKCKFHRLLEGTPKTLQIVLDVNEWYAVYTCEVPVQPLPETGSTVGVDVGTRYFAITSDGEFVHNPRHLGSALKKLRVQQRTVSRRKKGGNRRRKAVGQVAKTHRKIRRSRQDFHHKVAVKLVRENDLIAHEDLRVSNVVKSNLARSISDVGWSAFFDILRGKAESAGRVVVRVPPQYTSQRCHACGHTCRENRNNEVFKCVSCGHEDHADWNAAKNILGRAVPSGVNGSGVSHAVA	failed
LSDPNLVLFYVKNPAKSEEFYKNLLDTQPIESSPTFAMFVMKTGLRLGLWAQEEIEPKAHQTGGGMELSFQVNSNEMVDEIHRQWSDKEISIIQPPTQMDFGYTFVGVDPDEHRLRIFCLKRT	not failed
MKRNIFSIGFISVVLFIVLGACVGLAASEALQGSEQEINSAFSNQITPVISGDYIVWQDERDGNWDIYMYDMSAGRTETSLFNGPKDEIEPAISGSRVVLADNRRGNYDIYMYDISTKKEVQVTSDKSEQKEPAISEDIIVWTDRRNQNTDIYMYDLTTKEETRITDDKADQSQPAVWGNIIVWKDTRNGNEDIYMYDISAGKESPVVMDSAAQTNPVIEGDYIVWEDRRAGNLDIYMYEISTGKEKPVCTDPSPQKTPAISDGRIVWADGRIKGTNIFIYDIATGQEKTVSTASEYESNPSIDGNRIVWQDKRKGAMDIFMFTEDASETESTAGEKTEAETGSKAPLGIYPVSAGVIAAYLMINSGKKGKRKT	failed
MAGLAISPPLGLSFSSRTRNPKPTSFLSHNQRNPIRRIVSALQSPYGDSLKAGLSSNVSGSPIKIDNKAPRFGVIEAKKGNPPVMPSVMTPGGPLDLSSVLFRNRIIFIGQPINAQVAQRVISQLVTLASIDDKSDILMYLNCPGGSTYSVLAIYDCMSWIKPKVGTVAFGVAASQGALLLAGGEKGMRYAMPNTRVMIHQPQTGCGGHVEDVRRQVNEAIEARQKIDRMYAAFTGQPLEKVQQYTERDRFLSASEALEFGLIDGLLETEY	not failed
MVVAVYPGTFDPLTRGHEDLVRRASSIFDTLVVGVADSRAKKPFFSLEERLKIANEVLGHYPNVKVMGFTGLLKDFVRANDARVIVRGLRAVSDFEYEFQMAGMNRYLLPDVETMFMTPSDQYQFISGTIVREIAQLGGDVSKFVFPSVEKWLTEKVAAMAQGPSA	not failed
MGHHHHHHSHGQTFAGVIRGVQSYGFFVQIEALQVEGLVHVSSPKDDWYEYRSRQQRLIGRKNRRQFGLGDRVEVEIRNVDYYRQQIDLGVLPLPEAQSETSDREP	not failed
MKFGETFDMVLSDVRGKKIHASVKREHLNRFERLIVPGEWRAIENFGLTYATGQFKATDHRYKMGFMAQTRVVRIDPLSDSYFLSLTAFNDVLNGGLNQNYLIDVVGQIVNVGEMETIDVHNQPTKKIDFELRDQKDERLPCTLWGSFAEQVFTACEAANGEMIICLVRFAKLKTYKDVRSISNAFNTSQILINPDLPEILEFKDALPKDCLALTLIESKPKSKIDEFPTGDFYLQFAKKTIKEVSEMFDVGRVKVLCTIYDIDRDWSWYYIVCKKCNKKVTKVVMTSLKAQLWCETCRAPITNVLARYKLHVKVMDSSGEMKLMLFDAMSSEIVGCPANNLLDGSFDEIEDPDILPDSIKNLIGKTYQYLVCVENENKRYQMHDSIDQCSLMLTYSEEPSEATTPSSKRSSDTSISPADNFSTTKKLCLDSIKIVKIKQEMVEKNNEAKVVGEKLNF	failed
MVVHGGAAYIRAMDHLPVDPARYGAFLVAMFVMAITPGPANLFAIATGMEKGKGAALAGVAGMNCATLIWFIGSALGLGALIIAFPQAFHLLALAGAAYLVWLGLKSLWAGWKNAESHAVAAVRGGKSAFVDGFAVQIANPKALLFFTAVLPPFLDVDRPLVPQLLMFACATIGMDLISMSAYGVGGAALSDRMNEPGFRRGFAILVGVLLITAAGLIVSRG	failed
MSRVPGWLGRLGAGLTRASERLEQRREEARRDDADDGPGPVSDHERRPLDDTAEDSAVEHLAAHRPVALAHRPDPAQAVPWGVRVAAEAGWRLLVLAGTVWVLMRVISAVQLVVLAFVAALLITALLQPAVAWLRRHGVPRGPATALTAILGFVVMGLIGWFVTWQVMENIDNLSDQVQDGIDELRNWLLNSPFHVTDKQINEIAKNLRDAVGANTDQITSAGLEGVTVVVEALTGILLAAFSTLFLLYDGKRIWQWSLKLVPAAARPGVAGAGPRAWRTLTAYVRGTVIVALIDAIFIGLGIYFLDVPMAVPLAVFIFLFAFIPLVGAVVSGALAVVVALVTQGVFAAVMTLVVVLAVQQIEGHILQPFILGRAVRVHPLAVVLSVAAGGMVAGIGGAVVAVPLVAVTNTVVGYLRAYSREAALRRTPRPHGATSTDAAPAVDRVPGPPKPPAPPADGPPSDAP	failed
MTKKQKEILFCDYFEEWVEVYKVGAIAKITLAKYYNAAKQLRDLCPKLFISDFDRREYQRIINVYAETHEKQTVKDFHHHVKACIKDLFHDGLIDKDPTYRVVIKGAEPTRAKKRKFLQKEELSKLLQSLDMSQIGFGWFVMLVAKTGMRYAEALAITPADFDWTAQTISINKTWDYKYNKGFAKTKTLSSVRTIKIDWQIVGQFKPLIKDFPEDEPIFVEKFGDGTYKRQFNSTINNFLAVKCNETGITQISFHALRHTHASVLLAEGVSIHTISARLGHADVGVTQETYAHVLDELQKKDDQKMLSVLMQIA	failed
